“And” between values parts separate entries of the source, which are not always exact repeats. Equal entries are not always repeated.
Biological target: ECM (extracellular matrix)
Experiment: ECL assay on ECM (Matrigel)-coated plate, MRA reference of the same plate or date

ECL reaction (MRA): 448 and 564
Substance: MRA (antibody)

From patent US20240270846A1
